Here are results for four molecules from PMC12418098, “A single helicase-binding domain of DnaG couples with hexameric helicase DnaB in Bacillus stearothermophilus”.

“And” between values parts separate entries of the source, which are not always exact repeats. Equal entries are not always repeated.

For series [1], the target named is helicase DnaB hexamer from Bacillus stearothermophilus (Bacillus stearothermophilus) (UniProt Q9X4C9). As to the kind of experiment: ITC; DnaB hexamer without ssDNA titrated by DnaG(HBD); 25°C; 25 mmol/L Tris pH 8.0, 100 mmol/L NaCl. A general note: In ITC the heat of successive injections is recorded.
For series [2] the target is unchanged. The experiment in a line: ITC; DnaG(HBD) (200 μmol/L, needle) titrated into the pre-formed, gel-filtered DnaB6/dT16 complex (10 μmol/L, cell); 25°C; 25 mmol/L Tris pH 8.0, 100 mmol/L NaCl; one-set-of-sites model.
Series [3] concerns the target T1, DnaB helicase;DnaG(HBD) (Bacillus stearothermophilus;Bacillus …, UniProt Q9X4C9;Q9X4D0 1-454;455-597, |).
T1 sequence 1: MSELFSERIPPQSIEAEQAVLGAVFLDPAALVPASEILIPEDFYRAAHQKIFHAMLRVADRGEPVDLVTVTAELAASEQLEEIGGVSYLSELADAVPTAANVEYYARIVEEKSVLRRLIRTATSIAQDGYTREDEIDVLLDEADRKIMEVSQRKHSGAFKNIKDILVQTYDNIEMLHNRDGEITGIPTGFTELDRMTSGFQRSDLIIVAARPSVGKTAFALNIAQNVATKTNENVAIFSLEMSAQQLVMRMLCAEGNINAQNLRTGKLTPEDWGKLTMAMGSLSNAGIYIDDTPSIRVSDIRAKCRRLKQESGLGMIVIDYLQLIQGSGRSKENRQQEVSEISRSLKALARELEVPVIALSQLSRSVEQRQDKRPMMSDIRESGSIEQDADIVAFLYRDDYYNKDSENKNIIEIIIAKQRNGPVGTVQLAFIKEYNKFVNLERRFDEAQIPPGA
T1 sequence 2: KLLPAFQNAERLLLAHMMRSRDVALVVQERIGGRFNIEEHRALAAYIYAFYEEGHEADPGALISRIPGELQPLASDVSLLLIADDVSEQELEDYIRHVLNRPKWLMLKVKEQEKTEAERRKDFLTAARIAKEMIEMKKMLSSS
As to the kind of experiment: EMSA; DnaG(HBD) 1-15 pmol added to DnaB/dT16; 5 mM MgCl2, 2 mM ATP; EMSA: 25 mM Tris pH 8.0, 100 mM NaCl, 10% glycerol, 1 mM DTT, 5 mM MgCl2, 2 mM ATP, 4 C, native PAGE (6% in Methods, 8% in legend); ITC: 25 mM Tris pH 8.0, 100. To be noted: protein: recombinant;recombinant; tags: GST tag removed with PreScission (pGEX-6p-1);GST tag removed with PreScission (pGEX-6p-1); chain copies: 6;1; label: 5'-6-FAM; single strand. On the technique in general: In EMSA bound probe runs differently from free probe, usually more slowly.

Series [4] has as its target helicase-binding domain of primase DnaG from Bacillus stearothermophilus (Bacillus stearothermophilus) (UniProt Q9X4D0). The experiment in a line: ITC; reverse titration: pre-formed DnaB6/dT16 complex (200 μmol/L, needle) titrated into DnaG(HBD) (10 μmol/L, cell); 25°C; 25 mmol/L Tris pH 8.0, 100 mmol/L NaCl; one-set-of-sites model.
Series [5] has as its target T1, DnaB helicase;DnaG(HBD). As to the kind of experiment: gel filtration with SDS-PAGE and native PAGE; ternary complex, single peak; ITC Kd of Table 1 (about 1 uM) is HBD binding to preformed DnaB6/dT16, a protein-protein contact, so not listed as a value; EMSA: 25 mM Tris pH 8.0, 100 mM NaCl, 10% glycerol, 1 mM DTT, 5 mM MgCl2, 2 mM ATP, 4 C, native PAGE (6% in Methods, 8% in legend); ITC: 25 mM Tris pH 8.0, 100. The following applies: protein: recombinant;recombinant; tags: GST tag removed with PreScission (pGEX-6p-1);GST tag removed with PreScission (pGEX-6p-1); chain copies: 6;1; label: none stated; single strand. A general note: Size exclusion chromatography separates by hydrodynamic size, large species first.

For series [6], the target named is T2, DnaB helicase (Bacillus stearothermophilus, UniProt Q9X4C9 1-454).
T2 sequence: T1 sequence 1
The experiment in a line: gel filtration with SDS-PAGE and SYBR Green II staining; binary complex; EMSA: 25 mM Tris pH 8.0, 100 mM NaCl, 10% glycerol, 1 mM DTT, 5 mM MgCl2, 2 mM ATP, 4 C, native PAGE (6% in Methods, 8% in legend); ITC: 25 mM Tris pH 8.0, 100. The following applies: protein: recombinant; tags: GST tag removed with PreScission (pGEX-6p-1); chain copies: 6; label: none stated; single strand.

Molecule “helicase-binding domain of primase DnaG from Bacillus stearothermophilus (from UniProt Q9X4D0 1-597) (domain or fragment)” showed a stoichiometry N (DnaG(HBD) per DnaB hexamer) in series [1] of 3. In series [2], the Kd (usually the concentration at which binding is half-saturated) was 960 nM and 1130 nM and 1070 nM; the dH was -22.8 kcal/mol and -22.7 kcal/mol and -22.2 kcal/mol; the stoichiometry N (commonly the number of molecules, sites or subunits per partner or assembly) is 1.09 and 1.02 and 0.981.

B1: dT16 (6-FAM) (ssDNA)
DNA: TTTTTTTTTTTTTTTT
Take B1: the binding result in series [3] is “binds”.

B2: helicase DnaB hexamer from Bacillus stearothermophilus (enzyme)
chain: T1 sequence 1
With B2, in series [4], the dissociation constant (Kd) is 1010 nM and 1110 nM and 890 nM; the dH is -11.2 kcal/mol and -9.18 kcal/mol and -9.75 kcal/mol; the stoichiometry N is 0.987 and 1.08 and 1.05.

B3: dT16 (ssDNA)
DNA: TTTTTTTTTTTTTTTT
Turning to B3, the binding result in series [5] and in series [6] was “binds” in each case.
